Reference: patent publication US11999794B2, “Human mesothelin chimeric antigen receptors and uses thereof” (Novartis AG, priority 2013, dated 2024)

B1: M5: human anti-mesothelin scFv SEQ ID NO: 43; full CAR SEQ ID NO: 67 (protein)
scFv: QVQLVQSGAEVEKPGASVKVSCKASGYTFTDYYMHWVRQAPGQGLEWMGWINPNSGGTNYAQKFQGRVTMTRDTSISTAYMELSRLRSDDTAVYYCASGWDFDYWGQGTLVTVSSGGGGSGGGGSGGGGSGGGGSDIVMTQSPSSLSASVGDRVTITCRASQSIRYYLSWYQQKPGKAPKLLIYTASILQNGVPSRFSGSGSGTDFTLTISSLQPEDFATYYCLQTYTTPDFGPGTKVEIK
B2: M11: human anti-mesothelin scFv SEQ ID NO: 49; full CAR SEQ ID NO: 73 (protein)
scFv: QVQLQQSGAEVKKPGASVKVSCKASGYTFTGYYMHWVRQAPGQGLEWMGWINPNSGGTNYAQNFQGRVTMTRDTSISTAYMELRRLRSDDTAVYYCASGWDFDYWGQGTLVTVSSGGGGSGGGGSGGGGSGGGGSDIRMTQSPSSLSASVGDRVTITCRASQSIRYYLSWYQQKPGKAPKLLIYTASILQNGVPSRFSGSGSGTDFTLTISSLQPEDFATYYCLQTYTTPDFGPGTKVEIK

How the values were obtained:
Ovcar8 [1] = assay: Ovcar8 xenograft model (Example 8); type: in vivo, NSG mice; conditions: 2×10^6 CART cells i.v. at day 14
Method: Anti-tumor activity of CART-MSLN was assessed in vivo in an Ovcar8 xenograft model. 10×10^6 Ovcar8 cells were implanted subcutaneously on day 0 in NSG mice. At day 14, 2×10^6 CART cells (CARTs expressing M5, M11, M17, M21, SS1, and CD19, or untransduced cells; 10×10^6 total T cells) in a 100 μl dose was administered intravenously. Mice and tumors were monitored for about 40 days after tumor cell implantation.
A second in vivo xenograft experiment was performed to assess the anti-tumor activity of a second set of CART-MSLN cells. 10×10^6 OVCAR8-mcherry cells were injected into NSG mice. Once tumors were 150-250 mm^2, mice were randomized into treatment groups. CARTs expressing M12, M14, M16, M23, ss1, CD19, or untreated cells were injected at a dose of 10×10^6 T cells in 100 μl. About 40% of T cells were expressing CAR, and therefore at the administered dosage, about 4×10^6 CART cells were delivered to each animal.

Ovcar8 [2] = assay: OVCAR8 subcutaneous xenograft, single and double dose (Example 17); type: in vivo, NSG mice; conditions: for tumor growth / anti-tumor activity, single dose: 4×10^6 CAR+ T cells on day 14; for tumor growth / anti-tumor activity, double dose: 4×10^6 CAR+ T cells on days 14 and 19; for delta T/C value: day 52, versus Isotype group, single dose; for regression value / Regression (%) / Delta T/C (%): day 52; for Regression (%): double dose (second identical dose 5 days later); for Delta T/C (%): single dose of 4×10^6 CAR T cells i.v. on day 14, versus the Isotype group
Method: Cell line: OVCAR8 is a human ovarian cancer cell line that was derived from a patient with ovarian adenocarcinoma, and has been transduced to express mCherry. Cells were grown in RMPI medium containing 10% fetal bovine serum. This cell line grows adherent in tissue culture flasks. This cell line forms tumors in mice when implanted subcutaneously in the flank and mixed with matrigel. The addition of matrigel to the cells during the implantation allow for a matrix to develop in the flank of the mouse that provides a structure for the tumor cells to start growing on. Over 10-12 days, the matrigel plug degrades and the solid tumor that remains is made up of tumor cells and surrounding stromal cells. The OVCAR8 cells have been modified to express mCherry, so that that tumor cell growth can also be monitored by imaging the mice.
Mice: 6 week old NSG (NOD.Cg-Prkdc^scidIl2rg^tm1Wjl/SzJ) mice were received from the Jackson Laboratory (stock number 005557). Animals were allowed to acclimate in the Novartis NIBRI animal facility for at least 3 days prior to experimentation. Animals were handled in accordance with Novartis ACUC regulations and guidelines. Electronic transponders for animal identification were implanted on the left flank one day prior to tumor implantation. Mice were shaved on the right flank prior to tumor implantation.
Tumor implantation: OVCAR8 cells in log phase were harvested after tyrpsinization with 0.25% trypsin-EDTA. The cells were washed in 50 ml falcon tubes at 1200 rpm for 5 minutes, once in growth media and then two times in cold sterile PBS. The cells were resuspended in PBS at a concentration of 100×10^6 per ml and kept on ice. The PBS solution containing the cells was then mixed 1:1 with matrigel, resulting in a final concentration of 50×10^6 cells per ml of PBS-matrigel. The cells were placed on ice and immediately implanted in mice. Tumors were implanted subcutaneously in 200 ul on the right flank.
The OVCAR8 model endogenously expresses mesothelin and thus, can be used to test the in vivo efficacy of mesothelin directed CAR T cells. This model grows well when implanted subcutaneously in the flank of mice and can be calipered for tumor volume measurements. Upon implantation of 10×10^6 tumor cells in a 50:50 mix of PBS and matrigel, the tumors establish and can be accurately measured in one week. Within 13-15 days, the mean tumor volume is 100-200 mm^3, with tumors reaching an endpoint volume (1000-1200 mm^3) by 60-65 days. Anti-tumor activities of therapeutic agents are often tested once tumors are fully engrafted and matrigel resorbed. Thus, there is a large window with this model during which the anti-tumor activity of the CAR T cells can be observed.
CAR T cell dosing: Mice were dosed with 4×10^6 CART cells (13.3×10^6 total T cells) 14 days after tumor implantation. Cells were partially thawed in a 37 degree Celsius water bath and then completely thawed by the addition of 1 ml of cold sterile PBS to the tube containing the cells. The thawed cells were transferred to a 15 ml falcon tube and adjusted to a final volume of 10 mls with PBS. The cells were washed twice at 1000 rpm for 10 minutes each time and then counted on a hemocytometer. T cells were then resuspended at a concentration of 133×10^6 cells per ml of cold PBS and kept on ice until the mice were dosed. The mice were injected intravenously via the tail vein with 100 ul of the T cells for a dose of 4×10^6 CAR T cells (13.3×10^6 total T cells) per mouse. Seven mice per group were either treated with 100 ul of PBS alone (PBS) or T cells transduced with an isotype CAR (Isotype). 14 mice per group were treated with either the SS1 mesothelin CAR T cells, M5 mesothelin CAR T cells, or M11 mesothelin CART cells. Five days later the SS1, M5, and M11 groups were split in half and seven mice in each group were treated with an identical second dose of the CAR T cells. […]

Ovcar3 = assay: Luciferase-based killing assay; type: cell-based, human; conditions: for killing of target tumor cells: E:T 10:1 to 1:1, 20 hours, FIG. 16A; for specific killing within the panel of human meso CARs: FIGS. 17A and 17B
Method: The ability for the CART-MSLN to target and kill tumor cells was also assessed in vitro. A luciferase-based assay was used, with tumor cell lines expressing luciferase reporters. Target cells (tumor cells) were plated at 20,000 targets/well. CART-MSLN were added at varying effector:target ratios, from 10:1, 5:1, 2.5:1, and 1:1. The cells were cultured for 20 hours, and the luminescence of each well was detected to determine the percentage of target cells killed. Luciferase-expressing Ovcar3 (ovarian cancer) and U87 mg (glioblastoma) cell lines were used as target cells.

[3] = target: T1, biotinylated mesothelin ECD (Homo sapiens, UniProt Q13421); assay: Surface plasmon resonance (Biacore T200) binding affinity of purified scFvs; conditions: for Kd: 1:1 Binding or Steady State Affinity fit
T1 construct: made in house; host or cells: HEK293F (transient)
Method: Binding affinity of purified scFvs was measured on a Biacore T200 system. Briefly, recombinant human biotinylated mesothelin ECD was immobilized on a streptavidin (SA) sensor chip surface at a density of 150 RU. Purified scFv was injected over the chip under constant flow rate at three-fold serial dilutions. Association and dissociation rates of the protein complex were monitored for 270 seconds and 400 seconds, respectively. Double referencing was performed against a blank immobilized flow cell and a buffer blank. Affinity was determined with a Langmuir 1:1 binding model when possible, for those scFVs where accurate fitting was not possible due to fast on and off rates, the steady state model was used.

T1 sequence (Q13421 with tags, fused parts or gaps): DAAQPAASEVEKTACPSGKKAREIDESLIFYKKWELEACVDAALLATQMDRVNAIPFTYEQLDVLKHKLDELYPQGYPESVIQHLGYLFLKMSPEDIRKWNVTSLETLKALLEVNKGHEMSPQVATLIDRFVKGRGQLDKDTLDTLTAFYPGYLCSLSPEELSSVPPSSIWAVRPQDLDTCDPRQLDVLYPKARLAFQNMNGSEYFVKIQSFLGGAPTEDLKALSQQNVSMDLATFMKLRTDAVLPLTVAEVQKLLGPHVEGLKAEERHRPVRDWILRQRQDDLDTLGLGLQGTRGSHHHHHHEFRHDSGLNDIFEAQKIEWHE

Row | Molecule | anti-tumor activity, first xenograft experiment (Ovcar8 [1]) | tumor growth / anti-tumor activity, single dose (Ovcar8 [2]) | tumor growth / anti-tumor activity, double dose (Ovcar8 [2]) | delta T/C value (Ovcar8 [2]) [%] | regression value (Ovcar8 [2]; double dose) [%] | mice with complete regression (Ovcar8 [2]; double dose) | Regression (%) (Ovcar8 [2]) | Delta T/C (%) (Ovcar8 [2]) | killing of target tumor cells (Ovcar3) | specific killing within the panel of human meso CARs (Ovcar3) | ka ([3]; 1:1 Binding fit) [M⁻¹ s⁻¹] | kd ([3]; 1:1 Binding fit) [s⁻¹] | Kd [3] [nM]
1 | B1 | strong anti-tumor activity | clear anti-tumor activity | regression as opposed to tumor growth inhibition | 30.28 | −63.90 | four out of seven mice | −63.90 | 30.28 | performed similarly well in killing target tumor cells | highest specific killing of Ovcar3 cells | 42000 | 0.00113 | 26.9
2 | B2 | strong anti-tumor activity | clear anti-tumor activity | regression as opposed to tumor growth inhibition | 52.91 | −15.80 | – | −15.80 | 52.91 | performed similarly well in killing target tumor cells | highest specific killing of Ovcar3 cells | – | – | 64.7
